Assay results: paper PMC12583987, “Impact of Hanks Kinase‐Dependent Phosphorylation of CodY on the Physiology and Virulence in Bacillus cereus” (MicrobiologyOpen, 2025)

Experiments:
Experiment in all cases: SEC; Superdex 75 column on an Akta Purifier, PBS 1x, 0.5 mL/min; 75 uL (about 150 ug) of each purified protein loaded individually; column calibrated with a low molecular weight kit; oligomer size from the elution volume
[1] = molecular target: CodY-S215A (Bacillus cereus ATCC 14579), N-terminal (His)6-tagged (Bacillus cereus ATCC 14579) (UniProt Q819X8)
[2] = molecular target: CodY-S215D (Bacillus cereus ATCC 14579), N-terminal (His)6-tagged (Bacillus cereus ATCC 14579) (UniProt Q819X8)
[3] = molecular target: the molecule itself

**Q.** With “CodY-S215A (Bacillus cereus ATCC 14579), N-terminal (His)6-tagged (from UniProt Q819X8 1-259) (natural protein)” as the molecule, how does the stoichiometry N [1] read?
**A.** The stoichiometry N was 2.

**Q.** With “CodY-S215D (Bacillus cereus ATCC 14579), N-terminal (His)6-tagged (from UniProt Q819X8 1-259) (natural protein)” as the molecule, how does the stoichiometry N [2] read?
**A.** Its stoichiometry N is 2.

B1: CodY (Bacillus cereus ATCC 14579), N-terminal (His)6-tagged (natural protein)
chain: MELLAKTRKLNALLQSAAGKPVNFREMSDTMCEVIEANVFVVSRRGKLLGYAIHQQIENERMKQMLAERQFPEEYTQSLFNITETSSNLDVNSAYTAFPVENRELFGQGLTTIVPIVGGGERLGTLVLARLGQEFLDDDLILAEYSSTVVGMEILREKAEEIEEEARSKAVVQMAISSLSYSELEAIEHIFEELNGTEGLLVASKIADRVGITRSVIVNALRKLESAGVIESRSLGMKGTYIKVLNDKFLQELAKLKTN
notes: CodY, global transcriptional regulator of Bacillus cereus ATCC 14579; codY PCR-amplified from the chromosome with primers SAT31 + SAT32 and cloned in pQE-30; printed monomer Mw 29.8 kDa; also called CodY WT; wild-type CodY; source: E. coli M15 [pREP4], purified (Ni-NTA, desalted on PD10)
**Q.** Which “stoichiometry N” value [3] does the source give for B1 here?
**A.** The value was 2.
